The values that follow come from article PMC4386032, “A Dynamin-Actin Interaction Is Required for Vesicle Scission during Endocytosis in Yeast” (Current Biology, 2015).

For orientation: Kd means the free concentration of one partner at which half of the binding sites on the other are occupied at equilibrium, for simple one-to-one binding.

Data set [1] deals with the molecule itself. Put plainly: negative-stain electron microscopy; purified Vps1 imaged directly, adsorbed on carbon-coated grids, negative staining with uranyl formate; oligomeric rings.
Data set [2] concerns the target rabbit muscle actin (F-actin) (rabbit, UniProt P68135 1-377). Put plainly: co-sedimentation; high-speed F-actin pelleting: purified Vps1 (supernatant of a 90,000 x g pre-spin) mixed with pre-polymerized yeast or rabbit muscle F-actin (10% KME pH 8), 15 min, spun 90,000 x g; supernatant and pellet by SDS-PAGE, densitometry; KD from a single site binding curve over a range of Vps1 concentrations; 1.5 uM Vps1 with 3 uM F-actin in Figure 1A. The conditions noted are these: both partners purified.

B1: Vps1 (yeast dynamin), wild type, recombinant His tag fusion (natural protein, yeast (budding yeast), UniProt P21576 1-704, looked up)
chain: MDEHLISTINKLQDALAPLGGGSQSPIDLPQITVVGSQSSGKSSVLENIVGRDFLPRGTGIVTRRPLVLQLINRRPKKSEHAKVNQTANELIDLNINDDDKKKDESGKHQNEGQSEDNKEEWGEFLHLPGKKFYNFDEIRKEIVKETDKVTGANSGISSVPINLRIYSPHVLTLTLVDLPGLTKVPVGDQPPDIERQIKDMLLKYISKPNAIILSVNAANTDLANSDGLKLAREVDPEGTRTIGVLTKVDLMDQGTDVIDILAGRVIPLRYGYIPVINRGQKDIEHKKTIREALENERKFFENHPSYSSKAHYCGTPYLAKKLNSILLHHIRQTLPEIKAKIEATLKKYQNELINLGPETMDSASSVVLSMITDFSNEYAGILDGEAKELSSQELSGGARISYVFHETFKNGVDSLDPFDQIKDSDIRTIMYNSSGSAPSLFVGTEAFEVLVKQQIRRFEEPSLRLVTLVFDELVRMLKQIISQPKYSRYPALREAISNQFIQFLKDATIPTNEFVVDIIKAEQTYINTAHPDLLKGSQAMVMVEEKLHPRQVAVDPKTGKPLPTQPSSSKAPVMEEKSGFFGGFFSTKNKKKLAALESPPPVLKATGQMTERETMETEVIKLLISSYFSIVKRTIADIIPKALMLKLIVKSKTDIQKVLLEKLYGKQDIEELTKENDITIQRRKECKKMVEILRNASQIVSSV
notes: Vps1, dynamin-like protein of budding yeast; wild-type VPS1 expressed as a His tag fusion; Template plasmids pKA677 and pKA850 are named; Forms oligomeric rings by EM; also called wild-type Vps1; yeast dynamin Vps1; source: E. coli (C43), purified
Turning to B1, the binding result in data set [1] is on record as “binds”. Moreover, the affinity in data set [2], expressed as Kd, was 920 ± 310 nM.

B2: Vps1 RR457,458EE, recombinant His tag fusion (natural protein, yeast (budding yeast), UniProt P21576 1-704, looked up)
chain: MDEHLISTINKLQDALAPLGGGSQSPIDLPQITVVGSQSSGKSSVLENIVGRDFLPRGTGIVTRRPLVLQLINRRPKKSEHAKVNQTANELIDLNINDDDKKKDESGKHQNEGQSEDNKEEWGEFLHLPGKKFYNFDEIRKEIVKETDKVTGANSGISSVPINLRIYSPHVLTLTLVDLPGLTKVPVGDQPPDIERQIKDMLLKYISKPNAIILSVNAANTDLANSDGLKLAREVDPEGTRTIGVLTKVDLMDQGTDVIDILAGRVIPLRYGYIPVINRGQKDIEHKKTIREALENERKFFENHPSYSSKAHYCGTPYLAKKLNSILLHHIRQTLPEIKAKIEATLKKYQNELINLGPETMDSASSVVLSMITDFSNEYAGILDGEAKELSSQELSGGARISYVFHETFKNGVDSLDPFDQIKDSDIRTIMYNSSGSAPSLFVGTEAFEVLVKQQIEEFEEPSLRLVTLVFDELVRMLKQIISQPKYSRYPALREAISNQFIQFLKDATIPTNEFVVDIIKAEQTYINTAHPDLLKGSQAMVMVEEKLHPRQVAVDPKTGKPLPTQPSSSKAPVMEEKSGFFGGFFSTKNKKKLAALESPPPVLKATGQMTERETMETEVIKLLISSYFSIVKRTIADIIPKALMLKLIVKSKTDIQKVLLEKLYGKQDIEELTKENDITIQRRKECKKMVEILRNASQIVSSV
notes: Vps1 of budding yeast with the charge-switch mutations R457E and R458E in a helix of the stalk domain; Made by site-directed mutagenesis of template plasmids pKA677 and pKA850; also called RR-EE; Vps1 RR-EE; source: E. coli (C43), purified
Turning to B2, in data set [1], the binding result is on record as “binds”.
